This note sets out measurements from patent US20020151683A1 (MOGAM BIOTECHNOLOGY RESEARCH INSTITUTE, published 2002).

To fix the notation:
B1: X7 peptide derived from HBV X protein (positions 126-134) (peptide)
peptide: EIRLKVFVL
B2: X3 peptide derived from HBV X protein (positions 052-060) (peptide)
peptide: HLSLRGLFV
B3: X6 peptide derived from HBV X protein (positions 115-123) (peptide)
peptide: CLFKDWEEL

The assay concerns the target T1, HLA-A2.1, a human MHC Class I molecule, at the surface of T2 cell (human).
T1 construct: detected with BB7.2 antibody against HLA-A2.1; also called MHC Class I molecules at the surface of T2 cell
Nature of the assay: T2 cell MHC stabilisation assay, peptide 1-100 ug/ml, flow cytometry with BB7.2 anti-HLA-A2.1 and FITC anti-mouse Ig. As for the experimental part: Seven different peptides including the peptides as disclosed in Table 1 above which were derived from HBV X protein were synthesized chemically and dissolved in phosphate buffered saline (hereinafter, referred to as “PBS”). In order to investigate whether the peptides can bind to MHC Class I molecules associated with induction of CTL, each peptide was added to T2 cell line in a concentration of 100, 64, 32, 16, 8, 4, 2 and 1 μg/ml, respectively, and reacted at 37° C. for 4 hours. And then, the cells were washed with PBS to remove unreacted peptides, added with BB7.2 antibody against HLA-A2.1, a human MHC Class I molecule, and reacted at 4° C. for 1 hour. The cells were washed with PBS again, added with fluorescein isothiocyanate (FITC)-conjugated anti-mouse immunoglobulin antibody, and reacted at 4° C. for 1 hour. Then, fluorescence of the cells was determined using fluorocytometer (FACScan, BECTON DICKINSON) and the results were shown in FIG. 1.
B1: the binding result was “binds”.

As for B2, the binding result is listed as “binds”.

As to B3, the binding result is given as “binds”.
